# Numbered stars: 1 amine (or outer) side, 2 acyl side, 3 side chain; on linkers, the order of the positions; unused ones are H or OH. Bridge positions count the residues as written; N and C are the ends. Side chains are listed from the residue outwards. Ends that are not written are not given here. * marks the point of attachment. C20 diacid = O=C(O)CCCCCCCCCCCCCCCCCCC(=O)*; γGlu = O=C(O)[C@H](CCC(=O)[*:2])N[*:1]; AEEA = NCCOCCOCC(=O)O
# T1: human amylin receptor (amylin 3(a) receptor: human calcitonin receptor plus RAMP-3) (human, UniProt P30988 25-474; O60896 24-148, limits assumed)
# T1 sequence (looked up) 1: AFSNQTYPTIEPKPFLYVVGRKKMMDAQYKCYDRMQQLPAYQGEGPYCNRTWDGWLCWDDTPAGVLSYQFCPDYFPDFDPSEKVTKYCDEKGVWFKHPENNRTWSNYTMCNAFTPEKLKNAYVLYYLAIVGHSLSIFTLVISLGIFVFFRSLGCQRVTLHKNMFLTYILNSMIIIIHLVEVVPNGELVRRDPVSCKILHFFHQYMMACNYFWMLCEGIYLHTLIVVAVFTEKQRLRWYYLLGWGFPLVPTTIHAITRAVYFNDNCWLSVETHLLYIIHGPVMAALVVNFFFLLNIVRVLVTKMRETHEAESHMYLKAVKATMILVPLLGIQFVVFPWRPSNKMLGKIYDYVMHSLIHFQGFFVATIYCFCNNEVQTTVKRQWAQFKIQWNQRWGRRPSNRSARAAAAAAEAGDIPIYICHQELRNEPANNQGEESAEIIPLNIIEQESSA
# T1 sequence (looked up) 2: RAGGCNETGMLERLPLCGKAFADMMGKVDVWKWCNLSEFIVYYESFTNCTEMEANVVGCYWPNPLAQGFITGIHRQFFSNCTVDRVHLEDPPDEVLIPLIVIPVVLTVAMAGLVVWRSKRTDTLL
# T2: human calcitonin receptor (human, UniProt P30988 25-474)
# T2 sequence (looked up): T1 sequence (looked up) 1
# B1: N^α1-[(4S)-4-carboxy-4-(19-carboxynonadecanoylamino)butanoyl]-[Glu14,Arg17,Pro21,Pro27,Arg35]-h-amylin (peptide)
# peptide: {C20 diacid-γGlu}-KCNTATCATQRLAEFLRHSSPNFGAIPSSTNVGSRTY-NH2
# modifications: disulfide 2-7
# SMILES: CC[C@H](C)[C@H](NC(=O)[C@H](C)NC(=O)CNC(=O)[C@H](Cc1ccccc1)NC(=O)[C@H](CC(N)=O)NC(=O)[C@@H]1CCCN1C(=O)[C@H](CO)NC(=O)[C@H](CO)NC(=O)[C@H](Cc1c[nH]cn1)NC(=O)[C@H](CCCNC(=N)N)NC(=O)[C@H](CC(C)C)NC(=O)[C@H](Cc1ccccc1)NC(=O)[C@H](CCC(=O)O)NC(=O)[C@H](C)NC(=O)[C@H](CC(C)C)NC(=O)[C@H](CCCNC(=N)N)NC(=O)[C@H](CCC(N)=O)NC(=O)[C@@H](NC(=O)[C@H](C)NC(=O)[C@@H]1CSSC[C@H](NC(=O)[C@H](CCCCN)NC(=O)CC[C@H](NC(=O)CCCCCCCCCCCCCCCCCCC(=O)O)C(=O)O)C(=O)N[C@@H](CC(N)=O)C(=O)N[C@@H]([C@@H](C)O)C(=O)N[C@@H](C)C(=O)N[C@@H]([C@@H](C)O)C(=O)N1)[C@@H](C)O)C(=O)N1CCC[C@H]1C(=O)N[C@@H](CO)C(=O)N[C@@H](CO)C(=O)N[C@H](C(=O)N[C@@H](CC(N)=O)C(=O)N[C@H](C(=O)NCC(=O)N[C@@H](CO)C(=O)N[C@@H](CCCNC(=N)N)C(=O)N[C@H](C(=O)N[C@@H](Cc1ccc(O)cc1)C(N)=O)[C@@H](C)O)C(C)C)[C@@H](C)O
# notes: Synthetic acylated analogue of human amylin; also called compound 16
# B2: N^α1-[(4S)-4-carboxy-4-(19-carboxynonadecanoylamino)butanoyl]-[His14,Arg17,Pro21,Pro27,Glu35]-h-amylin (peptide)
# peptide: {C20 diacid-γGlu}-KCNTATCATQRLAHFLRHSSPNFGAIPSSTNVGSETY-NH2
# modifications: disulfide 2-7
# SMILES: CC[C@H](C)[C@H](NC(=O)[C@H](C)NC(=O)CNC(=O)[C@H](Cc1ccccc1)NC(=O)[C@H](CC(N)=O)NC(=O)[C@@H]1CCCN1C(=O)[C@H](CO)NC(=O)[C@H](CO)NC(=O)[C@H](Cc1c[nH]cn1)NC(=O)[C@H](CCCNC(=N)N)NC(=O)[C@H](CC(C)C)NC(=O)[C@H](Cc1ccccc1)NC(=O)[C@H](Cc1c[nH]cn1)NC(=O)[C@H](C)NC(=O)[C@H](CC(C)C)NC(=O)[C@H](CCCNC(=N)N)NC(=O)[C@H](CCC(N)=O)NC(=O)[C@@H](NC(=O)[C@H](C)NC(=O)[C@@H]1CSSC[C@H](NC(=O)[C@H](CCCCN)NC(=O)CC[C@H](NC(=O)CCCCCCCCCCCCCCCCCCC(=O)O)C(=O)O)C(=O)N[C@@H](CC(N)=O)C(=O)N[C@@H]([C@@H](C)O)C(=O)N[C@@H](C)C(=O)N[C@@H]([C@@H](C)O)C(=O)N1)[C@@H](C)O)C(=O)N1CCC[C@H]1C(=O)N[C@@H](CO)C(=O)N[C@@H](CO)C(=O)N[C@H](C(=O)N[C@@H](CC(N)=O)C(=O)N[C@H](C(=O)NCC(=O)N[C@@H](CO)C(=O)N[C@@H](CCC(=O)O)C(=O)N[C@H](C(=O)N[C@@H](Cc1ccc(O)cc1)C(N)=O)[C@@H](C)O)C(C)C)[C@@H](C)O
# notes: Synthetic acylated analogue of human amylin; also called compound 30
# B3: N^ε1-[2-[2-[2-[[(4S)-4-carboxy-4-(19-carboxynonadecanoylamino)butanoyl]amino]ethoxy]ethoxy]acetyl]-[Arg17,Pro21,Pro27,Pro29,Pro31]-h-amylin (peptide)
# peptide: K([AEEA-γGlu-C20 diacid])CNTATCATQRLANFLRHSSPNFGAIPSPTPVGSNTY-NH2
# modifications: disulfide 2-7; N-terminus assumed
# SMILES: CC[C@H](C)[C@H](NC(=O)[C@H](C)NC(=O)CNC(=O)[C@H](Cc1ccccc1)NC(=O)[C@H](CC(N)=O)NC(=O)[C@@H]1CCCN1C(=O)[C@H](CO)NC(=O)[C@H](CO)NC(=O)[C@H](Cc1c[nH]cn1)NC(=O)[C@H](CCCNC(=N)N)NC(=O)[C@H](CC(C)C)NC(=O)[C@H](Cc1ccccc1)NC(=O)[C@H](CC(N)=O)NC(=O)[C@H](C)NC(=O)[C@H](CC(C)C)NC(=O)[C@H](CCCNC(=N)N)NC(=O)[C@H](CCC(N)=O)NC(=O)[C@@H](NC(=O)[C@H](C)NC(=O)[C@@H]1CSSC[C@H](NC(=O)[C@@H](N)CCCCNC(=O)COCCOCCNC(=O)CC[C@H](NC(=O)CCCCCCCCCCCCCCCCCCC(=O)O)C(=O)O)C(=O)N[C@@H](CC(N)=O)C(=O)N[C@@H]([C@@H](C)O)C(=O)N[C@@H](C)C(=O)N[C@@H]([C@@H](C)O)C(=O)N1)[C@@H](C)O)C(=O)N1CCC[C@H]1C(=O)N[C@@H](CO)C(=O)N1CCC[C@H]1C(=O)N[C@H](C(=O)N1CCC[C@H]1C(=O)N[C@H](C(=O)NCC(=O)N[C@@H](CO)C(=O)N[C@@H](CC(N)=O)C(=O)N[C@H](C(=O)N[C@@H](Cc1ccc(O)cc1)C(N)=O)[C@@H](C)O)C(C)C)[C@@H](C)O
# notes: Synthetic acylated analogue of human amylin; also called compound 54
# B4: N^α1-[(4S)-4-carboxy-4-(19-carboxynonadecanoylamino)butanoyl]-[Glu14,Arg17,Pro21,Pro27]-h-amylin (peptide)
# peptide: KCNTATCATQRLAEFLRHSSPNFGAIPSSTNVGSNTY
# modifications: C20 diacid-gGlu on the alpha amino group of the N-terminal residue; disulfide bridge Cys2-Cys7; C-terminal amide
# notes: Synthetic acylated analogue of human amylin; also called compound 9
# B5: N^ε1-[2-[2-[2-[[(4S)-4-carboxy-4-(19-carboxynonadecanoylamino)butanoyl]amino]ethoxy]ethoxy]acetyl]-[Arg17,Pro21,Pro27,Pro28,Pro31]-h-amylin (peptide)
# peptide: K([AEEA-γGlu-C20 diacid])CNTATCATQRLANFLRHSSPNFGAIPPSTPVGSNTY-NH2
# modifications: disulfide 2-7
# notes: Synthetic acylated analogue of human amylin; also called compound 53
# B6: N^α1-[(4S)-4-carboxy-4-(19-carboxynonadecanoylamino)butanoyl]-[Glu14,Arg17,Pro21,Pro27,Pro31]-h-amylin (peptide)
# peptide: {C20 diacid-γGlu}-KCNTATCATQRLAEFLRHSSPNFGAIPSSTPVGSNTY-NH2
# modifications: disulfide 2-7
# SMILES: CC[C@H](C)[C@H](NC(=O)[C@H](C)NC(=O)CNC(=O)[C@H](Cc1ccccc1)NC(=O)[C@H](CC(N)=O)NC(=O)[C@@H]1CCCN1C(=O)[C@H](CO)NC(=O)[C@H](CO)NC(=O)[C@H](Cc1c[nH]cn1)NC(=O)[C@H](CCCNC(=N)N)NC(=O)[C@H](CC(C)C)NC(=O)[C@H](Cc1ccccc1)NC(=O)[C@H](CCC(=O)O)NC(=O)[C@H](C)NC(=O)[C@H](CC(C)C)NC(=O)[C@H](CCCNC(=N)N)NC(=O)[C@H](CCC(N)=O)NC(=O)[C@@H](NC(=O)[C@H](C)NC(=O)[C@@H]1CSSC[C@H](NC(=O)[C@H](CCCCN)NC(=O)CC[C@H](NC(=O)CCCCCCCCCCCCCCCCCCC(=O)O)C(=O)O)C(=O)N[C@@H](CC(N)=O)C(=O)N[C@@H]([C@@H](C)O)C(=O)N[C@@H](C)C(=O)N[C@@H]([C@@H](C)O)C(=O)N1)[C@@H](C)O)C(=O)N1CCC[C@H]1C(=O)N[C@@H](CO)C(=O)N[C@@H](CO)C(=O)N[C@H](C(=O)N1CCC[C@H]1C(=O)N[C@H](C(=O)NCC(=O)N[C@@H](CO)C(=O)N[C@@H](CC(N)=O)C(=O)N[C@H](C(=O)N[C@@H](Cc1ccc(O)cc1)C(N)=O)[C@@H](C)O)C(C)C)[C@@H](C)O
# notes: Synthetic acylated analogue of human amylin; also called compound 31
# B7: N^ε1-[2-[2-[2-[[2-[2-[2-[[(4S)-4-carboxy-4-(19-carboxynonadecanoylamino)butanoyl]amino]ethoxy]ethoxy]acetyl]amino]ethoxy]ethoxy]acetyl]-[Arg17,Pro21,Pro27,Glu35 … (peptide)
# peptide: K([AEEA-AEEA-γGlu-C20 diacid])CNTATCATQRLANFLRHSSPNFGAIPSSTNVGSETY-NH2
# modifications: disulfide 2-7; N-terminus assumed
# SMILES: CC[C@H](C)[C@H](NC(=O)[C@H](C)NC(=O)CNC(=O)[C@H](Cc1ccccc1)NC(=O)[C@H](CC(N)=O)NC(=O)[C@@H]1CCCN1C(=O)[C@H](CO)NC(=O)[C@H](CO)NC(=O)[C@H](Cc1c[nH]cn1)NC(=O)[C@H](CCCNC(=N)N)NC(=O)[C@H](CC(C)C)NC(=O)[C@H](Cc1ccccc1)NC(=O)[C@H](CC(N)=O)NC(=O)[C@H](C)NC(=O)[C@H](CC(C)C)NC(=O)[C@H](CCCNC(=N)N)NC(=O)[C@H](CCC(N)=O)NC(=O)[C@@H](NC(=O)[C@H](C)NC(=O)[C@@H]1CSSC[C@H](NC(=O)[C@@H](N)CCCCNC(=O)COCCOCCNC(=O)COCCOCCNC(=O)CC[C@H](NC(=O)CCCCCCCCCCCCCCCCCCC(=O)O)C(=O)O)C(=O)N[C@@H](CC(N)=O)C(=O)N[C@@H]([C@@H](C)O)C(=O)N[C@@H](C)C(=O)N[C@@H]([C@@H](C)O)C(=O)N1)[C@@H](C)O)C(=O)N1CCC[C@H]1C(=O)N[C@@H](CO)C(=O)N[C@@H](CO)C(=O)N[C@H](C(=O)N[C@@H](CC(N)=O)C(=O)N[C@H](C(=O)NCC(=O)N[C@@H](CO)C(=O)N[C@@H](CCC(=O)O)C(=O)N[C@H](C(=O)N[C@@H](Cc1ccc(O)cc1)C(N)=O)[C@@H](C)O)C(C)C)[C@@H](C)O
# notes: Synthetic acylated analogue of human amylin; also called compound 25
# B8: N^ε1-[2-[2-[2-[[(4S)-4-carboxy-4-(19-carboxynonadecanoylamino)butanoyl]amino]ethoxy]ethoxy]acetyl]-[Arg17,Pro21,Pro27,Glu35]-h-amylin (peptide)
# peptide: K([AEEA-γGlu-C20 diacid])CNTATCATQRLANFLRHSSPNFGAIPSSTNVGSETY-NH2
# modifications: disulfide 2-7; N-terminus assumed
# SMILES: CC[C@H](C)[C@H](NC(=O)[C@H](C)NC(=O)CNC(=O)[C@H](Cc1ccccc1)NC(=O)[C@H](CC(N)=O)NC(=O)[C@@H]1CCCN1C(=O)[C@H](CO)NC(=O)[C@H](CO)NC(=O)[C@H](Cc1c[nH]cn1)NC(=O)[C@H](CCCNC(=N)N)NC(=O)[C@H](CC(C)C)NC(=O)[C@H](Cc1ccccc1)NC(=O)[C@H](CC(N)=O)NC(=O)[C@H](C)NC(=O)[C@H](CC(C)C)NC(=O)[C@H](CCCNC(=N)N)NC(=O)[C@H](CCC(N)=O)NC(=O)[C@@H](NC(=O)[C@H](C)NC(=O)[C@@H]1CSSC[C@H](NC(=O)[C@@H](N)CCCCNC(=O)COCCOCCNC(=O)CC[C@H](NC(=O)CCCCCCCCCCCCCCCCCCC(=O)O)C(=O)O)C(=O)N[C@@H](CC(N)=O)C(=O)N[C@@H]([C@@H](C)O)C(=O)N[C@@H](C)C(=O)N[C@@H]([C@@H](C)O)C(=O)N1)[C@@H](C)O)C(=O)N1CCC[C@H]1C(=O)N[C@@H](CO)C(=O)N[C@@H](CO)C(=O)N[C@H](C(=O)N[C@@H](CC(N)=O)C(=O)N[C@H](C(=O)NCC(=O)N[C@@H](CO)C(=O)N[C@@H](CCC(=O)O)C(=O)N[C@H](C(=O)N[C@@H](Cc1ccc(O)cc1)C(N)=O)[C@@H](C)O)C(C)C)[C@@H](C)O
# notes: Synthetic acylated analogue of human amylin; also called compound 26
# Biological target: T1, human amylin receptor (amylin 3(a) …)
# Assay: cell-based or functional assay
Binder,Ratio hCT/hAmylin funct. [ratio],hAmylin-R funct. EC50 [pM]
B1,6.1,363
B2,12.6,134
B3,9.6,103
B4,7.4,175
B5,9.8,64
B6,6.4,112
B7,46.2,217
B8,29.9,212

# Biological target: T2, human calcitonin receptor
# Assay: cell-based or functional assay
row,Binder,hCTR funct. EC50 [pM]
1,B1,2220
2,B2,1680
3,B3,987
4,B4,1290
5,B5,625
6,B6,717
7,B7,10000
8,B8,6340
